The test system of the test is Arabidopsis thaliana T1 plants. Kind of test: Topramezone tolerance of transgenic Arabidopsis thaliana T1 plants (pesticide damage grade by bleached leaf area, score, resistance evaluation). The format is in vivo. Conditions: HPPD F372G mutants, Table 6. In short, it runs like this:
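Herbicide tolerance was judged per plant on a bleaching scale (grade 0 no bleaching to grade 3 fully bleached) 7 DAT. Topramezone doses were 0, 25, 50 and 100 g ai/ha on 18-day-old T1 and wild-type plants.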

B1: HaHPPDm-F372G: Helianthus annuus HPPD mutant F372G, SEQ ID NO: 319 (protein)
chain: MGTEATVAAVVAGDESDHPTSAFKLVGFKNFIRTNPMSDKFTVKNFHHIEFWCSDATNTARRFSWGLGMPIIFKSDLSTGNSTHASYLLRSGHLNFLFTAPYSPSISPTTTTASIPTFSHSASRHFTATHGLAVRAIAVEVEDAETAFAVSVANGAKPSSPPVTLGHNDVVLSEVKLYGDVVLRYVSYKNNTNNNNNNDNDNYIFLPGFEAMDKTSSFQELDYGIRRLDHAVGNVPELAPAVDYVKSFTGFHEFAEFTAEDVGTSESGLNSVVLACNSEMVLIPMNEPVYGTKRKSQIQTYLEHNEGAGVQHLALASEDIFRTLREMRKRSGVGGFEFMPSPPPTYYRNLKSRAGDVLSDEQIKECEELGILVDRDDQGTLLQIGTKPVGDRPTIFIEIIQRVGCMVKDDEGKVQQKAGCGGFGKGNFSELFKSIEEYEKTLEARSTTAA
modifications: HaHPPDm-F372G Amino Acid Sequence
B1: the Resistance evaluation result is, setting by setting: (topramezone 25 g ai/ha (1x)) “Poorly resistant”; (topramezone 100 g ai/ha (4x)) “Non-resistant”.

B2: AhHPPDm-F372G: Arachis hypogaea HPPD mutant F372G, SEQ ID NO: 333 (protein)
chain: MATAYTYAHAVTYCNSQHNPPIIPILSTNQHPPRVTLPSSIPHFISTITTFNLKHFPSHSLHTVMVTQTQQNAPSSSPELGFKLVGFKNFVRTNPKSDRFKVIRFHHVEFWCTDATNTASRFSWGLGMPIVAKSDLSTGNAVHASYLLRSGDLNFLFSAPYSASIAGDGASASFPSFSASDCHSFAAKHGLAVRAVAIEVEDASAAFSASVANGAKPVSPAVLLDNSVGFAEVHLYGDVVLRYISYSAPTRESNLNPTLRFLPGFEAVEADSSFPELDYGIRRLDHAVGNVPELAPAVNYLKKFTGFHEFAEFTAEDVGTSESGLNSVVLASNDEMVLLPLNEPVYGTKRKSQIETYLEHNEGAGLQHLALVSEDIFRTLREMRKRSTIGGFQFMPSPPPTYYRNLKKRAGDVLSDEQIKECEELGILVDRDDQGTLLQIGTKPVGDRPTIFIEIIQRIGCMLKDEEGKVYQKGGCGGFGKGNFSELFKSIEEYEKTLESRRTA
modifications: AhHPPDm-F372G Amino Acid Sequence
As for B2, the Resistance evaluation entry reads like this: (topramezone 25 g ai/ha (1x)) “Poorly resistant”; (topramezone 100 g ai/ha (4x)) “Non-resistant”.

B3: CsHPPDm-F372G: Cucumis sativus HPPD mutant F372G, SEQ ID NO: 327 (protein)
chain: MGKEADFPRAPSEATDGGATASQSEFELQGFDNFIRTNPKSDRFKVKRFHHIEFWCTDATNVARRFSWGLGMQIVAKSDLSTGNMTHASYLLRSGHLCFLFTAPYSPSIAAAQNLTPASTASIPSFDHSVCRSFSGTHGFGARAIALEVEDAEIAFRTSVAHGAKPSCPPIVLENRAVLSEVHLYGDVVLRYISYKNPVSGDNGENKPDEWFLPKFEAMEETASFPLDFGIRRLDHAVGNVPELGPAVSYLKGFTGFHEFAEFTAEDVGTSESGLNSMVLANNEEMVLLPINEPVFGTKRKSQIQTYLEHNEGAGVQHLALMSEDIFRTLREMRKRSSVGGFEFMPSPPPTYYKNLKSRAGDVLTDEQIKECEELGILVDKDDQGTLLQIGTKPVGDRPTIFIEIIQRLGCMMKDEEGKAFQKGGCGGFGKGNFSELFKSIEEYEKTLEAKRVSE
modifications: CsHPPDm-F372G Amino Acid Sequence
B3: the Resistance evaluation entry was “Poorly resistant” (topramezone 25 g ai/ha (1x)) and “Non-resistant” (topramezone 100 g ai/ha (4x)).

B4: NtHPPDm-F372G: Nicotiana tabacum HPPD mutant F372G, SEQ ID NO: 325 (protein)
chain: MGKLETVTTTSAAAADDSSELTTNFKLVGFKNFIRTNPRSDFFSVKSFHHIEFWCGDATNTARRFSWSLGMPIAAKSDLSTGNSVHASYLLRPVSGSLQFLFTAPYSPSISTPSSAAIPSFSTSTHRSFTTTHGLGVRAVALEVENAYTAFSASVSRGAKPMFEPVTIDEQVAMAEVHLYGDVVLRFVSYLKDADNLVFLPGFEAMDETASYKELDYGIRRLDHAVGNVPELGPVVDYIKRFTGFHEFAEFTAEDVGTAESGLNSMVLANNDETVLLPLNEPVYGTKRKSQIQTYLEHNEGAGVQHLALVTEDIFKTLTEMRKRSGVGGFEFMPSPPPTYYKNLKNRAGDVLSDEQILACEELGILVDRDDQGTLLQIGTKPVGDRPTIFIEIIQRIGCMLKDGKGQVYQKGGCGGFGKGNFSELFRSIEEYEKTLEAKQANQVAAA
modifications: NtHPPDm-F372G Amino Acid Sequence
Take B4: the Resistance evaluation result (topramezone 25 g ai/ha (1x)) is “Poorly resistant” and the Resistance evaluation entry (topramezone 100 g ai/ha (4x)) is given as “Non-resistant”.

B5: StHPPDm-F372G: Solanum tuberosum HPPD mutant F372G, SEQ ID NO: 329 (protein)
chain: MGKQAATATATATATADDQQLPADIEDKYKLVGFNNFVRTNPRSDLFNVKRFHHIEFWCGDATNTARRFSWGLGLPIAAKSDLSTGNSVHASYLLRSSSSQLQFLFTAPYSPAISTPSSSSIPTFSVSSHRSFTETHGLGVRAIALEVENSRLAFSTCVSHGAKPVSEPVILNDEVVISEVHLYGDVVLRFVSFLKDSNRFVFLPGFELVEGAQLDYGIRRLDHAVGNVPQLGPVVEYIKSFTGFHEFAEFTAEDVGTAESGLNSVVLANNDETVLFPLNEPVYGTKRKSQIQTYLEHNEGAGVQHLALVTEDIFRTLREMRKRSGIGGFEFMPSPPPTYYKNLKSRAGDILSDEQIKECEELGILVDRDDQGTLLQIGTKPVGDRPTIFLEIIQRIGCMLQNAEGELYQKGGCGGFGKGNFSELFKSIEEYEKTLEAKQNTQVAIA
modifications: StHPPDm-F372G Amino Acid Sequence
As for B5, the Resistance evaluation result runs as follows: (topramezone 25 g ai/ha (1x)) “Poorly resistant”; (topramezone 100 g ai/ha (4x)) “Non-resistant”.

B6: S1HPPDm-F372G: Solanum lycopersicum HPPD mutant F372G, SEQ ID NO: 331 (protein)
chain: MGKQAAAAADDQQLPGDIEDKFKLVGFNHFVRTNPRSDFFTVKRFHHIEFWCGDATNTARRFSWGLGLPIAAISDLSTGNSVHASYLLRSSSSSQLQFLFTAPYSSAISTSSSASIPTFSVSSHRSFTATHGLGVRAIALEVENSRLAFSTCVAHGAKPVSEPVILNDEVVIAEVHLYGDVVLRFVSFLKDSNCFVFLPGFESVEGAQLDYGIRRLDHAVGNVPELGPVVEYIKSFTGFHEFAEFTAEDVGTAESGLNSVVLANNDETVLFPLNEPVYGTKRKSQIQTYLEHNEGAGVQHLALVTEDIFRTLREMRKRSGIGGFEFMPSPPPTYYKNLKTRAGDILSDEQIQECEELGILVDRDDQGTLLQIGTKPVGDRPTIFLEIIQRIGCMLKNEEGELYQKGGCGGFGKGNFSELFKSIEEYEKTLEAKQNTQVAIA
modifications: SlHPPDm-F372G Amino Acid Sequence
On to B6, for which the Resistance evaluation entry (topramezone 25 g ai/ha (1x)) is on record as “Poorly resistant” and the Resistance evaluation result (topramezone 100 g ai/ha (4x)) is listed as “Non-resistant”.

B7: BnHPPDm-F372G: Brassica napus HPPD mutant F372G, SEQ ID NO: 317 (protein)
chain: MGHENAAVCETQQHDDAASPGFKLVGFSKFVRKNPKSDKFKVKRFHHIEFWCGDATNVSRRFSWGLGMRFSAKSDLSTGNMVHASYLLTSGDLRFLFTAPYSPSLSAGEAQPSATASIPSFDHASCRSFFSSHGLGVRAVAIEVEDAESAFSISVANGAVPSSPPNVLNGAVTIAEVKLYGDVVLRYVSYYNGTVSFLPGFESVDDTSSFPLDYGIRRLDHAVGNVPELGPALTYLAGFTGFHQFAEFTADDVGTAESGLNSAVLANNDEMVLLPINEPVHGTKRKSQIQTFLEHNEGAGLQHLALMSEDIFRTLREMRKRSGVGGFDFMPSPPPTYYKNLKKRVGDVLSEEQIEECEELGILVDRDDQGTLLQIGTKPLGDRPTIFIEIIQRVGCMKRDEEGKVYQSGGCGGFGKGNFSELFKSIEEYEKTLEAKQLVG
modifications: BnHPPDm-F372G Amino Acid Sequence
With B7, the Resistance evaluation result is, setting by setting: (topramezone 25 g ai/ha (1x)) “Poorly resistant”; (topramezone 100 g ai/ha (4x)) “Non-resistant”.

B8: BvHPPDm-F372G: Beta vulgaris HPPD mutant F372G, SEQ ID NO: 323 (protein)
chain: MGTLSPQPQTSPSQFKLVGYSNFIRVNPLSDLFPVKRFHHVEFWCGDATNVSRRFSWGLGMPIVAKSDLSTGNSVHASYLLRSGELHFLFTSPYSPSLSSPSSATIPTFSFSLFTSFLTSHGLAVRAVAVEVQDAEAAFHISVSNGASPVSPPIRLHDGVVLSEVHLYGDVVLRYVSTSSVVDGIFLPGFEEMLGESSFQELDFGLRRLDHAVGNVPELAPAIEYVKKFTGFHEFAEFTTEDVGTSESGLNSAVVANNDETVLFPMNEPVYGTKRKSQIQTYLEHNEGAGVQHLALMSEDIFWTLREMRKRSGLGGFEFMPSPPPTYYRNLRNRAADVLSEEQMKECEELGILVDKDDQGTLLQIGTKPIGDRPTMFIEIIQRIGCMMKDEEGKVYQKGGCGGFGKGNFSELFKSIEEYEKTLERKPIADTNAT
modifications: BvHPPDm-F372G Amino Acid Sequence
Take B8: the Resistance evaluation entry runs as follows: (topramezone 25 g ai/ha (1x)) “Moderately resistant”; (topramezone 100 g ai/ha (4x)) “Non-resistant”.

B9: MsHPPDm-F372G: Medicago sativa HPPD mutant F372G, SEQ ID NO: 321 (protein)
chain: MAIETETQTQTGFKLVGFKNFVRANPKSDRFKVKRFHHVEFWCTDATNTARRFSHGLGMPIVAKSDLSTGNQTHASYLLRSGDLNFLFSAAYSPSISLSSPSSTAAIPTFSASNCFSFSASHGLAVRAVAVEVEDAELAFTTSVNNGAIPSSPPVILENHVKLAEVRLYGDVVLRYVSYNDPNPNQNPNLLFLPGFERVSDESSNSSLDFGIRRLDHAVGNVPELSSAVKYVKDFTGFHEFAEFTAEDVGTSESGLNSVVLANNEETVLLPMNEPVYGTKRKSQIETYLEHNEGAGLQHLALKSEDIFRTLREMRKRSGVGGFEFMPSPPVTYYRNLKNRVGDVLSDEQIKECEELGILVDRDDQGTLLQIGTKPIGDRPTIFIEIIQRVGCMLKDEEGKEYQKGGCGGFGKGNFSELFKSIEEYEKTLETRRTA
modifications: MsHPPDm-F372G Amino Acid Sequence
Regarding B9, the Resistance evaluation result (topramezone 25 g ai/ha (1x)) is given as “Moderately resistant” and the Resistance evaluation entry (topramezone 100 g ai/ha (4x)) is given as “Non-resistant”.

The values above are taken from US20230212587A1, “Mutant Hydroxyphenylpyruvate Dioxygenase Polypeptide, Encoding Gene Thereof and Use Therefor” (Beijing Dabeinong Biotechnology Co., Ltd., priority 2019, published 2023).
